The values that follow come from patent US6555340.

Assay [1] has as its target RAGE on macrophages / macrophage-like cultured BV2 cells (MP RAGE) (UniProt Q62151). Nature of the assay: binding to macrophages in culture wells.
The target in assay [2] is cellular RAGE on human cells (HUVEC, Molt-4 cells, PBMC, Jurkat cells) (human) (UniProt Q15109). Nature of the assay: cell-based or functional assay.
The target of assay [3] is purified soluble human RAGE (sRAGE), prepared from a baculovirus expression system (human) (UniProt Q15109). Nature of the assay: binding to immobilised RAGE in wells.
For assay [4], the target named is RAGE on cultured bovine aortic endothelial cells (BAEC RAGE) (bovine) (UniProt Q28173). In words: binding to endothelial cells in culture wells.
In assay [5] the target is cellular RAGE on human cells (HUVEC, Molt-4 cells, PBMC, Jurkat cells) (human, UniProt Q15109 23-404). In words: cell-based or functional assay.
Assay [6] concerns the target T1, purified soluble human RAGE (sRAGE), prepared from a baculovirus expression system (human, UniProt Q15109 23-342).
T1 construct: extracellular domain; Adsorbed to plastic wells at 5 µg/well or to Affi-gel resin; also called soluble RAGE; human soluble RAGE
In words: elution from RAGE-Affi-gel resin; radioligand binding assay. The source says:
Isolation and purification of EN-RAGE. Bovine lung acetone powder (SIGMA@) was subjected to solubilization in buffer containing tris (0.02M, pH 7.4); NaCl (0.15M); octyl-β-glucoside (1%); and protease inhibitors (PMSF and aprotinin). After serial chromatography onto SP sepharose (Pharmacia LKB®), and affi-gel 10 resin (BIO-RAD®) to which had been adsorbed purified soluble human RAGE (prepared from a baculovirus expression system), RAGE-binding proteins were identified based on a screening assay employing immobilized column fraction (Nunc Maxisorp dishes) (NUNC®) and ^125-I-labelled sRAGE as above. After elution with heparin-containing buffer (1 mg/ml), positive fractions were identified. RAGE-binding proteins were subjected to sequence analysis.

Assay [7] concerns the target T1, purified soluble human RAGE (sRAGE), …. Nature of the assay: radioligand binding, 125-I EN-RAGE ± 50-fold unlabelled EN-RAGE on immobilised human sRAGE. The procedure:
Radioligand binding assays were performed employing the indicated concentration of ^125-I EN-RAGE in the presence or absence of excess unlabelled EN-RAGE (50-fold). […] Where indicated, radiolabelled EN-RAGE (100 nM) was incubated with the indicated amount of excess sRAGE two hours prior to binding assay, or wells were preincubated for two hours with the indicated concentration of rabbit nonimmune IgG, or polyclonal monospecific rabbit anti-EN-RAGE IgG or anti-RAGE IgG prior to binding assay and results reported as % maximal specific binding±SD of the mean. These experiments were performed at least five times with analogous results.
Purified EN-RAGE was radiolabelled using ^125-I and Iodobeads (Pierce) to a specific activity of approximately 5,000 cpm/ng. Radioligand binding assays were performed in 96-well dishes to which had been adsorbed either purified human RAGE (5 µg/well) or bovine aortic endothelial cells. In the former case, after adsorption of human soluble RAGE to the plastic dish in carbonate/bicarbonate buffer (pH 9.3) overnight, wells were then washed with PBS containing Tween 20 (0.05%). Unoccupied binding sites on the plastic wells were blocked by incubation with PBS containing calcium/magnesium and bovine serum albumin (1%) for two hours at 37° C. […] Solution was then aspirated from the wells and counted in a gamma counter (LKB, Gaithersburg, Md.). […]

The target of assay [8] is T2, RAGE on cultured bovine aortic endothelial cells (BAEC RAGE) (bovine, UniProt Q28173 23-416).
T2 construct: whole, on cells; also called BAECs; endothelial (EC) RAGE
T2 sequence (looked up): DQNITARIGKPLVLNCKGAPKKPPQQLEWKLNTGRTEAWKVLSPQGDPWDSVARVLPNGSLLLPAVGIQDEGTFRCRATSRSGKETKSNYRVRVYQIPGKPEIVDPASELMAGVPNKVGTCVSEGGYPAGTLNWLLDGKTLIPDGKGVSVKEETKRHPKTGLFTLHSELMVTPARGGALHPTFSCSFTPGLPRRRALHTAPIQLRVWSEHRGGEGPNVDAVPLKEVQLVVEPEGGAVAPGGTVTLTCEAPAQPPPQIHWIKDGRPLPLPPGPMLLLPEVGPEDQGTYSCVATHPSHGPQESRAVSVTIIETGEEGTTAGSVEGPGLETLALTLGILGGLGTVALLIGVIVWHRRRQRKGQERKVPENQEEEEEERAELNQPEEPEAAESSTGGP
Nature of the assay: radioligand binding on cultured bovine aortic endothelial cells. The method, then: These experiments were performed at least five times with analogous results.
Purified EN-RAGE was radiolabelled using ^125-I and Iodobeads (Pierce) to a specific activity of approximately 5,000 cpm/ng. Radioligand binding assays were performed in 96-well dishes to which had been adsorbed either purified human RAGE (5 µg/well) or bovine aortic endothelial cells. In the former case, after adsorption of human soluble RAGE to the plastic dish in carbonate/bicarbonate buffer (pH 9.3) overnight, wells were then washed with PBS containing Tween 20 (0.05%). Unoccupied binding sites on the plastic wells were blocked by incubation with PBS containing calcium/magnesium and bovine serum albumin (1%) for two hours at 37° C. […] Solution was then aspirated from the wells and counted in a gamma counter (LKB, Gaithersburg, Md.). […] Equilibrium binding data were analyzed according to the equation of Klotz and Hunston (Klotz and Hunston, 1984): B=nKA/1+KA, where B=specifically bound ligand (total binding, wells incubated with tracer alone, minus nonspecific binding, wells incubated with tracer in the presence of excess unlabelled material), n=sites/cell, K=the […] constant, and A=free ligand concentration) using nonlinear least-squares analysis (Prism; San Diego, Calif.). […]

cellular RAGE on human cells (HUVEC, Molt-4 cells, PBMC, Jurkat cells), sequence (Q15109 23-404): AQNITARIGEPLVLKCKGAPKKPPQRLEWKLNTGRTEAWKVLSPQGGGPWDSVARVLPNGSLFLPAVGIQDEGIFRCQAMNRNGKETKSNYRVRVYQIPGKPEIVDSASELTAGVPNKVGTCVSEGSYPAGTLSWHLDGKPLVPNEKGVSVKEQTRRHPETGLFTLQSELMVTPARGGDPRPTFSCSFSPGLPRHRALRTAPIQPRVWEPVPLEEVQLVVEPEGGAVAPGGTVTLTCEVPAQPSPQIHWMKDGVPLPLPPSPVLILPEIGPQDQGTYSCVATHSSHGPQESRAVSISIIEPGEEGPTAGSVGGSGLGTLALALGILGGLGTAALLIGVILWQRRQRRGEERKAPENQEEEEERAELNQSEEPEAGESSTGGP
cellular RAGE on human cells (HUVEC, Molt-4 cells, PBMC, Jurkat cells) (human), sequence (Q15109 23-404): as above
T1 sequence (Q15109 23-342): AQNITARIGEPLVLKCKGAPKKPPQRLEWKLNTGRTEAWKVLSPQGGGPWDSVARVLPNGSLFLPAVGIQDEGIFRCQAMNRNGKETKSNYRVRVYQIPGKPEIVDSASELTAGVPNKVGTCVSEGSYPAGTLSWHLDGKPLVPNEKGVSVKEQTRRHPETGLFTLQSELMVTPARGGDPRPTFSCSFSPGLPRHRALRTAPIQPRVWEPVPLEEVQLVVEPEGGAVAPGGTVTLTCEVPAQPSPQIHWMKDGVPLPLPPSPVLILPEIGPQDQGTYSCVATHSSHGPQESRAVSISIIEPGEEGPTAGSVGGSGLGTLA
purified soluble human RAGE (sRAGE), prepared from a baculovirus expression system (human), sequence (Q15109 23-342): as above
RAGE on macrophages / macrophage-like cultured BV2 cells (MP RAGE), sequence (Q62151 23-402 limits assumed): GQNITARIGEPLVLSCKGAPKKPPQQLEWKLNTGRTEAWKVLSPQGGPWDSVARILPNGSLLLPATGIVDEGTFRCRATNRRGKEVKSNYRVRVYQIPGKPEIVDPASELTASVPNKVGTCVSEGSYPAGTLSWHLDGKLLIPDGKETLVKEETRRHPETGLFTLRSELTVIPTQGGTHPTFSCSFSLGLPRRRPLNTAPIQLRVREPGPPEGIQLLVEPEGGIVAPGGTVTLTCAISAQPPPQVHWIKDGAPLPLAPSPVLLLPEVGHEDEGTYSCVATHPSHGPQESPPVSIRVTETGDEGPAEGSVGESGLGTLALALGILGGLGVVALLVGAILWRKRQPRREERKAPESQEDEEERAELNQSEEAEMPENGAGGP

Broadly, the Kd is a measure of binding affinity in units of concentration. Read a high Kd as lower affinity. For “≈12 kDa RAGE-binding polypeptide isolated and purified from bovine lung extract, called EN-RAGE (from UniProt P79105 2-51) (ligand)”, the Kd in assay [1], in assay [3] and in assay [4] was 75 nM each time. Besides, the adhesion of Molt-4 cells to cultured ECs in assay [2] came out at 7 fold. The expression of cell-surface VCAM-1 on cultured ECs in assay [2] is 4.3 fold.

B1: purified S100B from human brain (Calbiochem-Novabiochem) (ligand, UniProt P04271 2-92, looked up)
chain: SELEKAMVALIDVFHQYSGREGDKHKLKKSELKELINNELSHFLEEIKEQEVVDKVMETLDNDGDGECDFQEFMAFVAMVTTACHEFFEHE
As to B1, the “nuclear translocation of NF-kB in HUVEC (EMSA)” value in assay [5] was roughly 13.9 fold.

B2: ≈23 kDa polypeptide from bovine lung extract, identified as amphoterin (ligand, UniProt P10103 2-215, looked up)
chain: GKGDPKKPRGKMSSYAFFVQTCREEHKKKHPDASVNFSEFSKKCSERWKTMSAKEKGKFEDMAKADKARYEREMKTYIPPKGETKKKFKDPNAPKRPPSAFFLFCSEYRPKIKGEHPGLSIGDVAKKLGEMWNNTAADDKQPYEKKAAKLKEKYEKDIAAYRAKGKPDAAKKGVVKAEKSKKKKEEEEDEEDEEDEEEEEDEEDEEEEEDDDDE
notes: The identification is cited to Hori et al., 1995
As for B2, the binding result in assay [6] was “binds”.

B3: recombinant bovine EN-RAGE (Extracellular Novel RAGE binding protein), expressed in Sf9 cells from a baculovirus system (ligand)
chain: TKLEDHLEGIINIFHQYSVRVGHFDTLNKRELKQLITKELPKTLQNTKDQPTIDKIFQDLDADKDGAVSFEEFVVLVSRVLKTAHIDIHK
modifications: radiolabelled with 125-I (Iodobeads) in the radioligand binding assays; unlabelled in the cell activation assays
notes: also called 125-I EN-RAGE; radiolabelled EN-RAGE
B3: the “nuclear NF-kB in HUVEC (EMSA, densitometry)” value in assay [5] was 5 fold. Further, the Kd in assay [7] is roughly 91 nM; in assay [8], roughly 90.3 nM.
